Measured values taken from patent US20180031558A1, “BIOMARKERS OF ACUTE LIVER INJURY” (The Regents of the University of Michigan, priority 2014, published 2018).
“Also recorded” adds a separate entry of the source. Where two headings read alike, the source gives them in different places.

Assays:
liver [1] = assay: FasL and APAP induced mouse liver injury, histological analysis of liver sections; type: in vivo; settings: mice, intraperitoneal; FasL 0.15 μg/g, 4 h; APAP 700 mg/Kg, 8 h
Method: FIG. 4. CPS1 is released into serum during FasL and APAP induced mouse liver injury. Mice were injected with FasL (0.15 μg/g) and APAP (700 mg/Kg) and sacrificed after 4 h and 8 h, respectively. Liver damage was analyzed serologically, biochemically and histologically. Panel A: Immunoblots of serum CPS1, HMGB1 and caspase activation using total liver lysate. Coomassie stain of serum IgG heavy chain (just above the 50 kDa prominent species) and IgG light chain (25 kDa), and an actin blot of total liver lysates are included as loading controls. Serum ALT of the individual mice is also indicated (bottom of panel). Panel B: Hematoxylin and eosin stained liver sections. […] Scale bar=40 μm.
(§1) Primary hepatocytes from mice were isolated (Snider et al. J Cell Biol 195: 217-29, 2011.; herein incorporated by reference in its entirety). […] Serum ALT levels were determined using a Vetscan-vs2 instrument (ABAXIS) using the comprehensive diagnostic profile cartridge or using Unit for Laboratory Animal Medicine (ULAM) core facility at University of Michigan. […]
Mice were injected with FasL in saline (to induce apoptosis), or with APAP in DMSO (to induced necrosis) or were injected with vehicle (saline or DMSO). The serum and liver histology were then analyzed. For both the APAP and FasL conditions, CPS1 was more easily detected in the serum of the mice and parallels the elevation of ALT (FIG. 4A). […]

[2] = system: primary mouse hepatocytes; assay: Viable cell count by trypan blue staining of treated primary hepatocytes; type: cell-based; settings: FasL 0.5 μg/ml, APAP 1 mM
Method: FIG. 2. Primary hepatocytes release CPS1 in response to difference types of liver injury. A: Primary mouse hepatocytes were cultured in the presence of hypoosmotic media (200 mOsm/L), FasL (0.5 μg/ml), and acetaminophen (APAP, 1 mM). The concentrated cell culture media and total cell lysates were used for immunoblotting with antibodies to the indicated proteins. B: After each treatment as in panel A, the viable cell count was determined using trypan blue staining after trypsin treatment. Each bar represents the mean of 10 to 15 fields. […] C: Mouse hepatocytes were challenged with FasL, APAP and hypoosmosis as in Panel A. Cells were fixed and immunostained with CPS1 (red) and counter stained with DAPI (blue). Arrows highlight areas with less dense CPS1 staining. Scale bar=20 μm.
as §1, with “entirety). The liver was perfused with 3-5 ml of perfusion media through the portal vein with a flow rate of 3 ml/min followed by perfusion with 15-20 ml of digestion media containing 150 units/ml of collagenase-II (Worthington) at the same flow rate.” for “entirety).”

liver [3] = settings: mice fed 0.1% DDC for 10 days, 15 days, 6 weeks, 3 months
Method: Serum CPS1 in chronic liver injury. Panel A: The presence of serum CPS1 and HMGB1 was tested in animals exposed to the hepatotoxin DDC for 10 days, 15 days, 6 weeks and 3 months. Corresponding serum ALT values are also included. […] Each lane corresponds to serum from separate mice. Two mice for each time point were shown except the control. Panel B: Hematoxylin and eosin staining of livers from control and DDC-administered mice. Scale bar=40 μm. Panels C and D: Human sera from patients with chronic hepatitis B virus infection (HBV), chronic hepatitis C infection (HCV), or controls were analyzed for the presence of CPS1 and HMGB1. Serum from APAP and from control donors with normal ALT were used as positive and negative controls, respectively. […] Each lane represents separate patients or donors.
To test the CPS1 release during chronic mouse liver injury, mice were fed 0.1% DDC (a porphyrinogenic hepatotoxin) for 10-days, 15-days, 6-weeks and 3-months and serum CPS1 levels were analyzed.

[4] = Half-life of CPS1 in mouse serum after FasL injection (western blot densitometry); type: in vivo
Method: FIG. 6. CPS1 has a short half-life in mouse serum. In order to determine the half-life of CPS1 in mouse serum, mice (five total) were injected with FasL (0.075 μg/g) and blood was collected from the same animal via tail vain at the indicated time points. Sera were used to determine serum ALT, or mixed with 2× SDS sample buffer to measure circulating serum CPS1 by western blot analysis. CPS1 pixel intensity (CPS1 OD) at each time point was determined by densitometry scanning. Panels A-D: Immunoblots of time-dependent serum CPS1 levels of four individual mice are shown. CPS1 OD and serum ALT values at each time point are indicated. A Coomassie stain of serum is included as loading control. To determine the half-life of serum CPS1, the OD values of 24 h to 32 h of all five mice were used. Assuming an exponential decay, half-life of CPS1 for each time interval was calculated using the equation; Ending amount=Beginning amount/[…]; where n=number of half-lives. […]
as §1

[5] = rats; cited from earlier work

With CC(=O)Nc1ccc(O)cc1 [APAP, acetaminophen] the “liver histology (hematoxylin and eosin)” value (liver [1]) was “necrotic cell death” and the “cell death (viable cell count, trypan blue)” value [2] was “significant cell deaths”.

With CCOC(=O)C1=C(C)NC(C)=C(C(=O)OCC)C1C [DDC] the “liver histology (hematoxylin and eosin)” value (liver [3]) was “early evidence of cell drop off at days 10 and 15”.

In the case of “FasL: Fas ligand, which induces hepatocyte cell death (apoptosis)”, the “liver histology (hematoxylin and eosin)” value (liver [1]) is reported as “marked liver hemorrhage; also recorded: severe hemorrhage formation”.

B1: CPS1: most abundant mitochondrial matrix protein of liver, urea cycle enzyme; serum biomarker of acute liver injury (protein, UniProt P31327 39-1500, looked up)
Carbamoyl-phosphate synthase …: LSVKAQTAHIVLEDGTKMKGYSFGHPSSVAGEVVFNTGLGGYPEAITDPAYKGQILTMANPIIGNGGAPDTTALDELGLSKYLESNGIKVSGLLVLDYSKDYNHWLATKSLGQWLQEEKVPAIYGVDTRMLTKIIRDKGTMLGKIEFEGQPVDFVDPNKQNLIAEVSTKDVKVYGKGNPTKVVAVDCGIKNNVIRLLVKRGAEVHLVPWNHDFTKMEYDGILIAGGPGNPALAEPLIQNVRKILESDRKEPLFGISTGNLITGLAAGAKTYKMSMANRGQNQPVLNITNKQAFITAQNHGYALDNTLPAGWKPLFVNVNDQTNEGIMHESKPFFAVQFHPEVTPGPIDTEYLFDSFFSLIKKGKATTITSVLPKPALVASRVEVSKVLILGSGGLSIGQAGEFDYSGSQAVKAMKEENVKTVLMNPNIASVQTNEVGLKQADTVYFLPITPQFVTEVIKAEQPDGLILGMGGQTALNCGVELFKRGVLKEYGVKVLGTSVESIMATEDRQLFSDKLNEINEKIAPSFAVESIEDALKAADTIGYPVMIRSAYALGGLGSGICPNRETLMDLSTKAFAMTNQILVEKSVTGWKEIEYEVVRDADDNCVTVCNMENVDAMGVHTGDSVVVAPAQTLSNAEFQMLRRTSINVVRHLGIVGECNIQFALHPTSMEYCIIEVNARLSRSSALASKATGYPLAFIAAKIALGIPLPEIKNVVSGKTSACFEPSLDYMVTKIPRWDLDRFHGTSSRIGSSMKSVGEVMAIGRTFEESFQKALRMCHPSIEGFTPRLPMNKEWPSNLDLRKELSEPSSTRIYAIAKAIDDNMSLDEIEKLTYIDKWFLYKMRDILNMEKTLKGLNSESMTEETLKRAKEIGFSDKQISKCLGLTEAQTRELRLKKNIHPWVKQIDTLAAEYPSVTNYLYVTYNGQEHDVNFDDHGMMVLGCGPYHIGSSVEFDWCAVSSIRTLRQLGKKTVVVNCNPETVSTDFDECDKLYFEELSLERILDIYHQEACGGCIISVGGQIPNNLAVPLYKNGVKIMGTSPLQIDRAEDRSIFSAVLDELKVAQAPWKAVNTLNEALEFAKSVDYPCLLRPSYVLSGSAMNVVFSEDEMKKFLEEATRVSQEHPVVLTKFVEGAREVEMDAVGKDGRVISHAISEHVEDAGVHSGDATLMLPTQTISQGAIEKVKDATRKIAKAFAISGPFNVQFLVKGNDVLVIECNLRASRSFPFVSKTLGVDFIDVATKVMIGENVDEKHLPTLDHPIIPADYVAIKAPMFSWPRLRDADPILRCEMASTGEVACFGEGIHTAFLKAMLSTGFKIPQKGILIGIQQSFRPRFLGVAEQLHNEGFKLFATEATSDWLNANNVPATPVAWPSQEGQNPSLSSIRKLIRDGSIDLVINLPNNNTKFVHDNYVIRRTAVDSGIPLLTNFQVTKLFAEAVQKSRKVDSKSLFHYRQYSAGKAA
In the case of B1, the “average half-life of CPS1 in mouse serum” value ([4]; mice injected with FasL 0.075 μg/g, OD values of 24 h to 32 h of five mice, mean±standard error of mean) is given as 2.1 ± 0.15 h, the “half-life of CPS1 in mouse serum” value ([4]; mice, FasL treatment 0.075 μg/g, combination of turnover and ongoing release) is given as about 2.1 h and the “half-life of CPS1” value [5] is given as 1.12 h.
